From patent publication US12319742 (SHATTUCK LABS, dated 2025)

Key:
[1] = biological target: FcγR1 (CD64), BLI reagent (UniProt P12314 16-288, limits assumed); experiment: BLI; antibody as analyte at 300 nM on FcγR1
[2] = biological target: T1, biotinylated recombinant human FcRn-His tagged protein (Acro #FCM-H82W7) (human, UniProt P55899 24-297; P61769 21-119, biotinylated); experiment: BLI/Octet; biotinylated human FcRn-His on streptavidin biosensor; pH 7.4
T1 construct: also called hFcRn; neonatal Fc receptor
Protocol: Figure 5D: FIG. 5D. FcRn binding kinetics by anti-TNFRSF25 antibodies. BLI assay was performed using the Octet Red 96e instrument. Streptavidin biosensors were loaded with biotinylated recombinant human(h) FcRn-His tagged protein (Acro #FCM-H82W7) as the ligand. During the association phase, biosensors were incubated with anti-DR3 candidate antibodies at various concentrations for 600 seconds, followed by a 600-second dissociation phase.
To detect binding of certain whole antibodies to the neonatal Fc receptor (FcRn) at neutral and acidic pH conditions, streptavidin biosensors were loaded with biotinylated recombinant human FcRn-His tagged protein (Acro #FCM-H82W7) as the ligand. During the association phase, biosensors were incubated with anti-TNFRSF25 antibodies at various concentrations for 600 seconds, followed by a 600 second dissociation phase.

[3] = biological target: T2, CD40; experiment: flow cytometry on engineered mammalian cells overexpressing CD40, APC anti-human Fc
T2 construct: member of group m24; also called CD40 overexpressed in engineered mammalian cells

[4] = biological target: T3, GITR; experiment: flow cytometry on engineered mammalian cells overexpressing GITR, APC anti-human Fc
T3 construct: member of group m24; also called GITR overexpressed in engineered mammalian cells
T3 chain: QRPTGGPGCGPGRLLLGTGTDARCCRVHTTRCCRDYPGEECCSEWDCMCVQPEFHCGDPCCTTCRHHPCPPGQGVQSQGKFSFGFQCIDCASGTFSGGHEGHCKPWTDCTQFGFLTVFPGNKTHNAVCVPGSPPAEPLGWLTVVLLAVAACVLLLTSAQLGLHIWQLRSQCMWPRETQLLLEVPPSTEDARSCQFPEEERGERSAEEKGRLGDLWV

[5] = biological target: T4, TNFRSF25 on lymphocytes in human PBMCs (human, UniProt Q93038 25-417); experiment: flow cytometry MFI on CD4+ T cells of human PBMCs, anti-CD3/CD28 stimulation 24 h, APC anti-human Fc
T4 construct: whole, on cells; also called TNFRSF25 on CD4+ and CD8+ T cells and NK cells
T4 sequence (looked up): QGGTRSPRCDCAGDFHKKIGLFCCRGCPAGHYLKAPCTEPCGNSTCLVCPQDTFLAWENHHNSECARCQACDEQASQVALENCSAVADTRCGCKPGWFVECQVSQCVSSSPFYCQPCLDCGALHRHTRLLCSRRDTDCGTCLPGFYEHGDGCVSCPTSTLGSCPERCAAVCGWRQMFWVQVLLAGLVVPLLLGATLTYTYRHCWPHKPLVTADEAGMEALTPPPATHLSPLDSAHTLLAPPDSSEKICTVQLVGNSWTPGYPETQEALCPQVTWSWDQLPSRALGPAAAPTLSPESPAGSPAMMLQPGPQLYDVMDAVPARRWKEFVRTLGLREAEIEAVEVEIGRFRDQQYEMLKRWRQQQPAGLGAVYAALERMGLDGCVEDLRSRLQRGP
Protocol: (§1) Human PBMCs were stimulated with either IL12+IL18 or anti-CD3/CD28 for 24 hours to assess binding of anti-TNFRSF25 to lymphocyte subsets.
(§2) Figure 9: FIG. 9. […] Figure 10: FIG. 10.

[6] = biological target: T5, biotinylated recombinant human TNFRSF25-His tagged (Acro #TN5-H52H3) (human, UniProt Q93038 25-199, biotinylated); experiment: SPR (Biacore); biotinylated TNFRSF25-His on streptavidin chip SA; 2 min association, 30 min dissociation; 1:1 binding
T5 construct: treated as the same protein; also called recombinant biotin-conjugated human TNFRSF25 protein; DR3
T5 sequence (looked up): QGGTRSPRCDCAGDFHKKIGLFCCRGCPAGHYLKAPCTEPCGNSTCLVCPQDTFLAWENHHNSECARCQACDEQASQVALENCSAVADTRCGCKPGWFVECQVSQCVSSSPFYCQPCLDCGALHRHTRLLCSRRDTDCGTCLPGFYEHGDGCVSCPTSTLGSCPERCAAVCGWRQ
Protocol: (FIG. 5A) BLI assay was performed using the Octet Red 96e instrument. Streptavidin biosensors were loaded with biotinylated recombinant human TNFRSF25-His tagged (Acro #TN5-H52H3) as the ligand. […] (FIG. 5B) SPR was performed on a Biacore 8K instrument.

[7] = biological target: T4, TNFRSF25 on lymphocytes in human PBMCs; experiment: flow cytometry MFI on CD8+ T cells of human PBMCs (panel 1003_CD8+T), IL12+IL18 stimulation 24 h, APC anti-human Fc
Protocol: as §1, §2

[8] = biological target: T4, TNFRSF25 on lymphocytes in human PBMCs; experiment: flow cytometry MFI on CD8+ T cells of human PBMCs (panel 1003_CD8+T), anti-CD3/CD28 stimulation 24 h, APC anti-human Fc
Protocol: as §1, §2

T1 sequence (P55899 24-297 limits assumed, chain 1 of 2): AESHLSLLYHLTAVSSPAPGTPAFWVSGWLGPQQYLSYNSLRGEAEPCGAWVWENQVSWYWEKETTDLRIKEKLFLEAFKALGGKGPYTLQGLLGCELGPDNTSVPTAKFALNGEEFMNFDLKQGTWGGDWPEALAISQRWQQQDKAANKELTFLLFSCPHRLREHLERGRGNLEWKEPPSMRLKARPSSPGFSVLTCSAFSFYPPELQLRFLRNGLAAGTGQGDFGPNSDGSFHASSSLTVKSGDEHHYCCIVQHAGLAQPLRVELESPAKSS
T1 sequence (P61769 21-119 limits assumed, chain 2 of 2): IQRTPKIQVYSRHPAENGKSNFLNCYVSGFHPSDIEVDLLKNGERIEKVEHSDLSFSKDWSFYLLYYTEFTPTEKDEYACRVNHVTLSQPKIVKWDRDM
T2 sequence (chain, as listed by the source limits assumed): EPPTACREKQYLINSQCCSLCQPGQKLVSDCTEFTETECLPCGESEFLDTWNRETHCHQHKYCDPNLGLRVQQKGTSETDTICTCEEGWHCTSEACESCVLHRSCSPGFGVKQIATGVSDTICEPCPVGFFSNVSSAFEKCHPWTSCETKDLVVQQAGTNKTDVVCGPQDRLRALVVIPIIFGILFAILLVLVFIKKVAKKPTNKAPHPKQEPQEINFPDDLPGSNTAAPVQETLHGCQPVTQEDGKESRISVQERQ
Chain of FcγR1 (CD64), BLI reagent (P12314 16-288 limits assumed): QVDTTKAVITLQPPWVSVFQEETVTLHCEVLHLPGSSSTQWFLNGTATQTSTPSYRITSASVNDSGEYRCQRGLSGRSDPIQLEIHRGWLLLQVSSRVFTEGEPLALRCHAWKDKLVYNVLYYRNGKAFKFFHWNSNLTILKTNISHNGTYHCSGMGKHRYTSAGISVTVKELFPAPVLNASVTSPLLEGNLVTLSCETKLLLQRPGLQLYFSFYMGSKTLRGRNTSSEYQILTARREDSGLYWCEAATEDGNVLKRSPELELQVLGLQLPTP

B1: SL-061 (antibody, human IgG1, kappa)
heavy: QVQLQQSGPGLVKPSQTLSLTCAISGDSVSGYSAAWNWIRQSPSRGLEWLGRTYYRSKWYNDYAVSVKSRITINPDTSKNQFSLQLNSVTPEDTAVYYCARDYYGSESYYNRGYYYYGMDVWGQGTTVTVSSASTKGPSVFPLAPSSKSTSGGTAALGCLVKDYFPEPVTVSWNSGALTSGVHTFPAVLQSSGLYSLSSVVTVPSSSLGTQTYICNVNHKPSNTKVDKKVEPKSCDKTHTCPPCPAPEAAGAPSVFLFPPKPKDTLMISRTPEVTCVVVDVSHEDPEVKFNWYVDGVEVHNAKTKPREEQYNSTYRVVSVLTVLHQDWLNGKEYKCKVSNKALPAPIEKTISKAKGQPREPQVYTLPPSREEMTKNQVSLTCLVKGFYPSDIAVEWESNGQPENNYKTTPPVLDSDGSFFLYSKLTVDKSRWQQGNVFSCSVMHEALHNHYTQKSLSLSPGK
light: AIQLTQSPSSLSASVGDRVTITCRASPGISSALAWYQQKPGKAPKLLMYDESSQESGVPSRFSGSGSGTDFTLTISSLQPEDFATYYCQQFNDYPLTFGGGTKVEIKRTVAAPSVFIFPPSDEQLKSGTASVVCLLNNFYPREAKVQWKVDNALQSGNSQESVTEQDSKDSTYSLSSTLTLSKADYEKHKVYACEVTHQGLSSPVTKSFNRGEC
notes: Same variable regions as SL-033; IgG1 with L234A/L235A+G237A; also called clone 061; SL-061 (L234A/L235A+G237A)
binding result [1]: no binding (tested: 300 nM)
Kd [2]: 7.41 nM
koff [2]: 0.00327 s⁻¹
kon [2]: 441000 M⁻¹ s⁻¹
binding result [3]: no binding (tested: about 20 nM)
binding result [4]: no binding (tested: about 20 nM)
EC50 [5]: 0.059 nM
koff [6]: 3.89e-06 s⁻¹
kon [6]: 2.85e+06 M⁻¹ s⁻¹
EC50 [7]: 0.043 nM
EC50 [8]: 0.059 nM
